Patent US10544202B2, “Mutant proteins and methods for their production” (Medical Research Council, priority 2013, dated 2020)
Numbering of substitutions follows the chain as printed. Names may count otherwise. “And” between values parts separate entries of the source, which are not always exact repeats. Identical values can stand only once.

B1: wild-type SERT: cocaine-sensitive rat serotonin transporter, parent protein (protein, listed as Rattus sp.)
chain: METTPLNSQKVLSECKDREDCQENGVLQKGVPTTADRAEPSQISNGYSAVPSTSAGDEASHSIPAATTTLVAEIRQGERETWGKKMDFLLSVIGYAVDLGNIWRFPYICYQNGGGAFLLPYTIMAIFGGIPLFYMELALGQYHRNGCISIWRKICPIFKGIGYAICIIAFYIASYYNTIIAWALYYLISSLTDRLPWTSCTNSWNTGNCTNYFAQDNITWTLHSTSPAEEFYLRHVLQIHQSKGLQDLGTISWQLTLCIVLIFTVIYFSIWKGVKTSGKVVWVTATFPYIVLSVLLVRGATLPGAWRGVVFYLKPNWQKLLETGVWVDAAAQIFFSLGPGFGVLLAFASYNKFNNNCYQDALVTSVVNCMTSFVSGFVIFTVLGYMAEMRNEDVSEVAKDAGPSLLFITYAEAIANMPASTFFAIIFFLMLITLGLDSTFAGLEGVITAVLDEFPHIWAKRREWFVLIVVITCVLGSLLTLTSGGAYVVTLLEEYATGPAVLTVALIEAVAVSWFYGITQFCSDVKEMLGFSPGWFWRICWVAISPLFLLFIICSFLMSPPQLRLFQYNYPHWSIVLGYCIGMSSVICIPTYIIYRLISTPGTLKERIIKSITPETPTEIPCGDIRMNAV
B2: G115A: rat SERT single mutant G115A (protein)
chain: B1 chain with G115A
B3: SAH7: thermostabilised rat SERT triple mutant A505L+P499A+L405A (protein, UniProt P31652 1-630, looked up, variant A505L P499A L405A)
Sodium-dependent serotonin …: B1 chain with L405A, P499A, A505L
B4: G278A: rat SERT single mutant G278A (protein)
chain: B1 chain with G278A
B5: P499A: rat SERT single mutant P499A (protein)
chain: B1 chain with P499A
B6: SAH6: thermostabilised rat SERT triple mutant A505L+L99A+G278A (protein, UniProt P31652 1-630, looked up, variant A505L L99A G278A)
Sodium-dependent serotonin …: B1 chain with L99A, G278A, A505L
B7: L405A: rat SERT single mutant L405A (protein)
chain: B1 chain with L405A
B8: G113A: rat SERT single mutant G113A (protein)
chain: B1 chain with G113A
B9: A169L: rat SERT single mutant A169L (protein)
chain: B1 chain with A169L
B10: F311A: rat SERT single mutant F311A (protein)
chain: B1 chain with F311A
B11: L99A: rat SERT single mutant L99A (protein)
chain: B1 chain with L99A
B12: A505L: rat SERT single mutant A505L (protein)
chain: B1 chain with A505L
B13: L406A: rat SERT single mutant L406A (protein)
chain: B1 chain with L406A

Key:
SAH6 [1] = molecular target: T1, SAH6 (Rattus norvegicus, UniProt P31652, A505L/G278A/L99A); conditions: SAH6 vs wild-type SERT
SAH6 [2] = molecular target: T1, SAH6; assay: [125I]-RTI55 saturation binding on membranes, SAH6; set-up: expressed in transfected cells; host or cells: T-REx-293 (HEK293) cells, membranes; conditions: read-out: apparent KD for [125I]-RTI55 binding
SAH7 = molecular target: T2, SAH7 (Rattus norvegicus, UniProt P31652, A505L/L405A/P499A); assay: [125I]-RTI55 saturation binding on membranes, SAH7; conditions: read-out: apparent KD for [125I]-RTI55 binding
T2 construct: expressed in transfected cells; host or cells: T-REx-293 (HEK293) cells, membranes

[3] = Thermostability assay of [125I]-RTI55-bound detergent-solubilised SERT (apparent Tm)
T-REx-293 cells [4] = assay: Cell surface expression by confocal microscopy; type: cell-based; set-up: key: *: low expression; **: as wild-type SERT; ***: higher expression than wild-type SERT; conditions: estimation by eye of fluorescence upon confocal microscopy
T-REx-293 cells [5] = assay: Expression level of SERT-mCherry mutants transiently transfected into T-REx-293 cells; type: cell-based; conditions: relative to wild-type SERT = 100%; transient transfection
Method: (FIG. 3A) Comparison of [^125I]-RTI55 bound to 554 detergent-solubilised Ala/Leu mutants at either 4° C. or after heating at 30° C. for 30 minutes. The data relating to thermostability (the heated samples) have been normalized to the amount of wild-type SERT remaining after heating (40%; horizontal dashed line). The expression level of wild-type SERT is indicated by the vertical dashed line and the grey column (0-200 dpm) represents non-specific binding of [^125I]-RTI55 to the parental T-REx-HEK293 cell line (no SERT). Each data point represents binding to the equivalent of 50,000 cells measured in duplicate (estimated error is ±20% in dpm). […] (FIG. 3C) Amino acid sequence of SERT (SEQ ID NO: 1) showing the positions of the thermostabilising mutations (hatched) that consistently gave >1° C. increase in Tm compared to wild-type SERT; residues in bold and hatched were used to stabilize either SAH6 and/or SAH7. N-linked glycosylation sites are indicated by the hexagons, a putative disulphide bond is shown as a grey line and the N-terminal and C-terminal fusion partners are shown (c-Myc tag and the fluorescent reporter protein mCherry) are indicated.

[6] = tested on: tetracycline-induced stable T-REx cell lines; assay: [3H]-5HT uptake assay; type: cell-based; conditions: cell lines expressing cell surface-expressed mutant-GFP

Molecule | Cell surface expression (T-REx-293 cells [4]) | Expression (%) SERT = 100% (T-REx-293 cells [5]) | other results
CN(C)CCCN1c2ccccc2CCc2ccccc21 [imipramine] |  |  | decrease in affinity relative to wild-type SERT (SAH6 [1]): 6.7 fold
ibogaine |  |  | decrease in affinity relative to wild-type SERT (SAH6 [1]): 4.5 fold
COC(=O)[C@H]1C(c2ccc(I)cc2)C[C@@H]2CC[C@H]1N2C (stereo partly drawn) [[^125I]-RTI55, RTI55 (β-CIT)] |  |  | Kd (SAH6 [2]): 3.8 nM and 3.7 nM; Kd (SAH7): 1.3 nM and 1.2 nM and 1.5 nM
B1 |  |  | amount of transporter remaining after heating ([3]; 30° C. for 30 minutes): 40%; Apparent Tm in 0.1% DDM ([3]; 125I-RTI55-bound detergent-solubilised SERT, apparent Tm ±1° C.): 28 °C; apparent Tm ([3]; [125I]-RTI55-bound, DDM-solubilised, 30 min heating): 28 °C; transporter remaining functional after heating ([3]; single-temperature assay, 28° C. for 30 minutes): approximately 40%
B2 | *** | 327% | 
B3 |  |  | transport of [3H]-5HT into the cell [6]: no significant transport
B4 | * | 39% | 
B5 | ** | 65% | 
B6 |  |  | transport of [3H]-5HT into the cell [6]: no significant transport
B7 | *** | 543% | 
B8 | ** | 42% | 
B9 | ** | 31% | 
B10 | ** | 492% | 
B11 | ** | 131% | 
B12 | *** | 175% | 
B13 | * | 87% | 
